Columns and labels:
IDUA [1] = target: T1, IDUA (Homo sapiens, UniProt P35475); assay: Denaturation prevention (isothermal denaturation) assay with SYPRO Orange; assay type: binding; set-up: purchased R&D Systems; details: pH 7.0 and 37 °C, no compound
T1 sequence (P35475 28-653): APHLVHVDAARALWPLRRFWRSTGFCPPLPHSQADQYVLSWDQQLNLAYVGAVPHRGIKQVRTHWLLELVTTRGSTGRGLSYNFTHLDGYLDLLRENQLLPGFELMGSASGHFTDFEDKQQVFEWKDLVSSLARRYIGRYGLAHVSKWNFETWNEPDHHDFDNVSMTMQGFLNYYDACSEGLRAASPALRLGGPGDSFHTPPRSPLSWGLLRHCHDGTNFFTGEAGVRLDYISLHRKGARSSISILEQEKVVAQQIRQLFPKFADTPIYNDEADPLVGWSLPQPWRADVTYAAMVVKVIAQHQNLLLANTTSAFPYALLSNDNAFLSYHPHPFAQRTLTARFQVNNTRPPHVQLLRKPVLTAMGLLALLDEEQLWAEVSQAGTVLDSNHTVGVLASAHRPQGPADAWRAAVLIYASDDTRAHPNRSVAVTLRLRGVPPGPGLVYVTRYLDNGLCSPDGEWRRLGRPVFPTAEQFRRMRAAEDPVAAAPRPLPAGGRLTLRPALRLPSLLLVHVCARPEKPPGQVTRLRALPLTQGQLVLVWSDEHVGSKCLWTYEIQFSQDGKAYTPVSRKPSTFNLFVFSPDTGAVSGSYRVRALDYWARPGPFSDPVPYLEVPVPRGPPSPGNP
Experimental: The capacity of the compounds to stabilize IDUA in neutral pH buffer was assessed using the denaturation prevention assay. Briefly, rhIDUA (obtained from the Institute of Biotechnology and Biomedicine in the UAB, Bellaterra, Spain) was combined to a final concentration of 1 μM with 5X SYPRO Orange and 30 μM of the corresponding compound in a final reaction volume of 25 μL in 100 mM Hepes, 20 mM MgCl2, pH 7 buffer, or 25 mM NaAc, 150 mM NaCl, pH 5.2. Reactions were incubated at 37 °C, and SYPRO Orange fluorescence intensity was monitored at the indicated time points using Glomax® Discover microplate reader (Promega, Madison, WI, USA). Two independent experiments in triplicate at one concentration (30μM) of compound #18 (GT-01803) were performed for denaturation prevention assays.

IDUA [2] = target: T1, IDUA; assay: IDUA enzymatic activity in patient-derived fibroblasts after rhIDUA with or without compound (4-MUI substrate); assay type: cell-based; set-up: Institute of Biotechnology and Biomedicine, Autonomous University of Barcelona (UAB), Bellaterra, Spain; details: rhIDUA 1.25 nM alone
Experimental: Fibroblasts derived from Hurler (GM00798) and Hurler/Scheie patients (GM02845, GM00512, GM01898, GM00963) were purchased from Coriell (Camden, NJ). Fibroblasts were cultured in Dulbecco’s modified Eagle’s medium (DMEM, Gibco) supplemented with 10% inactivated fetal bovine serum (FBS, Gibco) and 1% penicillin-streptomycin (Thermo Fisher Scientific, Waltham, MA, USA) (growth medium) at 37 °C under 5% CO2. The effect of the protein and/or compound in enhancing IDUA enzymatic activity was evaluated as follows: The specified patient-derived fibroblasts were seeded at 4x10^4 cells per well in 12-well cell culture plates in growth medium. Subsequently, cells were incubated with indicated dose of rhIDUA (obtained from the Institute of Biotechnology and Biomedicine in the UAB, Bellaterra, Spain) in the absence or presence of the compound #18 (GT-01803) for the specified incubation times at 50 μM. After incubation, cells were washed with PBS and detached using Trypsin-EDTA solution (Sigma Aldrich, St. Louis, MO, USA) to prepare cell pellets. The pellets were stored at -80 °C until activity assays were performed. IDUA activity in cell lysates was measured using 4-methylumbelliferyl IDUA substrate (4-MUI, Glycosynth Ltd., #44076, Warrington, UK). Briefly, lysates were resuspended in 120 μL of 0.9% NaCl containing 0.01% Triton X-100 lysis buffer to promote membrane disruption. Next, the cell suspension was sonicated and centrifuged to pellet insoluble materials. Then, 25 μL of lysates were mixed with 25 μL of 200 μM 4-MUI substrate solution in 0.4 M sodium formate, pH 3.5, 0.2% Triton X-100 buffer and incubated for 60 mins at 37 °C. The reaction was stopped by adding 200 μL of 0.5 M Glycine/0.3 M NaOH buffer, pH 10. The liberated 4-methylumbelliferone (4-MU) was measured on a Glomax® Discover microplate reader with excitation at 340 nm and emission at 460 nm. Protein quantification was determined using Pierce BCA Protein Assay Kit (Thermo Fisher Scientific, Waltham, MA, USA). Measurements were interpolated in a 4-MU standard curve and normalised by protein quantity.
For Fig 6A, rhIDUA concentrations of 0.187, 0.375 and 1.25 nM were tested in GM02845 fibroblasts over a 96-hour period, both in the presence and absence of the compound #18 (GT-01803) at 50 μM. In Fig 6B, 1.25 nM of rhIDUA was evaluated in GM02845, GM00798, GM00512, and GM00963 fibroblasts for 96h, with and without the compound #18 (GT-01803) at 50 μM. In Fig 6C, a concentration of 1.25 nM of the protein was applied to fibroblasts for 4, 8, 24 and 96h, with and without the compound #18 (GT-01803) at 50 μM.

B1: rhIDUA: recombinant human alpha-L-iduronidase, enzyme replacement therapy protein (protein, UniProt P35475 28-653, looked up)
Alpha-L-iduronidase: T1 sequence (P35475 28-653)
**Q.** For B1, which “stability of rhIDUA at physiological conditions” value (IDUA [1]) is on record?
**A.** Its value is “unstable”.

**Q.** What about the “mean IDUA cell activity at 96h” value (IDUA [2]; GM02845 fibroblasts (Fig 6C)) of the same molecule?
**A.** Its value is 75.63 nmol/h/mg.

**Q.** What about the “mean IDUA cell activity” value (IDUA [2]; GM02845 fibroblasts, 96 h (Fig 6A)) of the same molecule?
**A.** The value was 53.37 nmol/h/mg.
